Assay [1] deals with heterotrimeric IL-15R (αβγc chains) on CTLL-2 cells (UniProt Q60819). Kind of assay: cell-based or functional assay.
Assay [2] deals with IL-15Rβγc receptors on 32Dβ cells. Kind of assay: cell-based or functional assay.

UniProt Q60819, sequence (Q60819 33-263, chain 1 of 3): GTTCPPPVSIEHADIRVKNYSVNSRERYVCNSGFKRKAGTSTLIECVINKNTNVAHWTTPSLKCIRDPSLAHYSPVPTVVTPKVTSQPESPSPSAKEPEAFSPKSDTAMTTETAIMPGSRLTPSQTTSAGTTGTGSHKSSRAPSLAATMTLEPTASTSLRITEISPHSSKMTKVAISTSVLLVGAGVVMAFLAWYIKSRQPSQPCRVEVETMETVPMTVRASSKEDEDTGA
UniProt Q60819, sequence (P16297 27-539, chain 2 of 3, further chain): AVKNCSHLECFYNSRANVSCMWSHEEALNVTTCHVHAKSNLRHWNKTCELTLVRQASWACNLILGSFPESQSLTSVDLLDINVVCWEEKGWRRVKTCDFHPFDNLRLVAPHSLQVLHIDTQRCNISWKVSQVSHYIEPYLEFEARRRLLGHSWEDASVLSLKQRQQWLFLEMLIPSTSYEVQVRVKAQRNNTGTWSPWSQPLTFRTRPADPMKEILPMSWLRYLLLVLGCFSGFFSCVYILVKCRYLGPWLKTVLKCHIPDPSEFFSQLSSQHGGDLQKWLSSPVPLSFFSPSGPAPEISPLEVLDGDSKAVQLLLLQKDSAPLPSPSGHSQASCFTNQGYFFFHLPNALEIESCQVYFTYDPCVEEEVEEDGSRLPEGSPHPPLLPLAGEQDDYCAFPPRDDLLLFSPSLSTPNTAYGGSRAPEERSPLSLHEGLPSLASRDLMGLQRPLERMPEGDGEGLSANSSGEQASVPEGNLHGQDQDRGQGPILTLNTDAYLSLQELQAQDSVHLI
UniProt Q60819, sequence (P34902 23-369, chain 3 of 3, further chain): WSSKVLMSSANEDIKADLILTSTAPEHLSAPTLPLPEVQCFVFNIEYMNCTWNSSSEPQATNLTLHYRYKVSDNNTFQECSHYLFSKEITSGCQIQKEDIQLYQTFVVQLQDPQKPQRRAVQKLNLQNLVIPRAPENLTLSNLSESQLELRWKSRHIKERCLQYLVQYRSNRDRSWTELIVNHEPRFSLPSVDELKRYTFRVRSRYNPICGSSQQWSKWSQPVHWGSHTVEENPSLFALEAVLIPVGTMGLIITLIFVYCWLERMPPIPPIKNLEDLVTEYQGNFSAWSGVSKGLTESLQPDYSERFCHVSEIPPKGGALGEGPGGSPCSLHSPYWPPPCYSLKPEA

In turn, “c264scTCR/huIL15+c264scTCR/huIL15RαΔE3 fusion protein complex (from UniProt Q13261 31-205)” returned an inhibition of c264scTCR/huIL15 stimulatory activity on CTLL-2 proliferation after complex formation in assay [1] of 4 fold. In assay [2], “c264scTCR/huIL15N72D fusion protein (from UniProt P01857 99-113)” registered a proliferation of 32Dβ cells (WST-1), lowest concentration with biological activity of 80 pM.

Values taken from patent US20090324538A1.
